Source: PMC4705661, “Tetramerization and interdomain flexibility of the replication initiation controller YabA enables simultaneous binding to multiple partners” (Nucleic Acids Research, 2015)

Experiments:
[1] = target: the molecule itself; assay: crystal structure; form I crystals, space group P3(2)21, 2.7 Å; 20% PEG 3350, 100 mM Bis-Tris propane pH 6.5, 200 mM potassium thiocyanate
[2] = target: the molecule itself; assay: SEC-MALS; YabA1-58 and YabA70-119 loaded at 5 mg.ml^-1 (100 μl) on a Superdex 75 column; 50 mM Tris pH 8.0, 150 mM NaCl
[3] = target: the molecule itself; assay: SEC-MALS; YabA loaded at 2.5 mg.ml^-1 (100 μl) on Superdex 200 HR 10/30; 50 mM Tris pH 8.0, 150 mM NaCl

B1: YabA^1–62 (crystallized N-terminal domain fragment) (domain or fragment, B. subtilis, UniProt P37542 1-62, looked up)
chain: MDKKELFDTVINLEEQIGSLYRQLGDLKQHIGEMIEENHHLQLENKHLRKRLDDTTQQIEKF
notes: YabA, B. subtilis strain 168; form I crystals (2.7 Å) grew from the purified YabA/DnaN complex, form II crystals from YabA alone; two chains per asymmetric unit, tetramer by crystal symmetry; also called YabA NTD; YabA-NTD; source: E. coli BL21 (DE3), purified; fragment left by proteolysis during crystallization
For B1, the “stoichiometry N” value [1] was 4.

B2: YabA^1–58 (domain or fragment, B. subtilis, UniProt P37542 1-58, looked up)
chain: MDKKELFDTVINLEEQIGSLYRQLGDLKQHIGEMIEENHHLQLENKHLRKRLDDTTQQ
notes: YabA, B. subtilis strain 168, residues 1-58; tag removed by HRV 3C protease; also called NTD fragment; N-terminal fragment YabA1-58; not shown: His-tag, N-terminal, cleaved
For B2, the “stoichiometry N” value [2] was 4.

B3: YabA (full length, purified recombinant) (natural protein)
chain: not shown
notes: expressed from pET151/D-TOPO; also called recombinant YabA; full length YabA; source: E. coli BL21 (DE3), purified (HisTrap, TEV cleavage, Superdex 200)
In the case of B3, the “stoichiometry N” value [3] is reported as 4.
